Where “and” joins values, the source holds several entries; their conditions need not be identical. Identical values can stand only once. Entries after “also recorded” stand apart in the source; their conditions may differ.
What was measured:
[1] = target: T1, βPKC (Rattus norvegicus, UniProt P68403); experiment: PKC overlay of peptides immobilized on nitrocellulose (slot blot); assay type: binding; conditions: for binding of activated PKC to immobilized peptide: 5 nM rat brain PKC with PS; for binding of activated PKC to immobilized peptide / lowest peptide amount at which activated PKC bound: DG and calcium; for binding of unactivated PKC to immobilized peptide: 5 nM rat brain PKC without PS, DG, calcium; for lowest peptide amount at which activated PKC bound: PKC with PS, 0.5-10.0 μmole peptide applied
T1 construct: All the solutions contained 5 nM rat brain PKC; from tissue; host or cells: rat brain
Experimental: The binding of βPKC to peptide I (SEQ ID NO:1), peptide rVI (SEQ ID NO:7) and control peptide (SEQ ID NO:9) was assessed using a PKC overlay assay similar to that described in Example 3. Increasing amounts of peptides (0.5 μmole, 1.0 μmole, 5.0 μmole and 10.0 μmole) suspended in 20 mM NaCl were applied individually onto nitrocellulose using a slot-blot apparatus (Schleicher and Schuell, Keene, N.H.). The nitrocellulose membrane was washed three times, 15 minutes per wash, in peptide overlay buffer and incubated for two hours in peptide overlay block buffer. The membrane was cut into sections and the sections were transferred to different PKC-containing solutions and incubated for 30 minutes at room temperature. All the solutions contained 5 nM rat brain PKC in peptide overlay buffer. Some solutions additionally contained PS, DG, and calcium. The membranes were then washed three times, 15 minutes per wash, in peptide overlay buffer and incubated in peptide overlay block buffer containing anti-βPKC monoclonal antibodies (1:1000 dilution; Seikagaku Kogyo, Tokyo, Japan). After a 16 hr incubation at room temperature, the filters were washed three times, 15 minutes per wash, in peptide overlay buffer.
Binding of PKC was determined using chemiluminescence as described in Example 3, part C. Quantitation of PKC binding was carried out using a “MICRO SCAN” 1000 gel analyzer (Galai Inc., Yokneam, Israel).

[2] = target: T1, βPKC; experiment: Sensitivity of βPKC to Arg-C endopeptidase (nicking); assay type: biochemical; conditions: low activators: 2.5 μg/ml PS and 50 μM CaCl2; for nicking of βPKC by Arg-C (78 kDa fragment): peptide 10 μM
From the text: Upon activation of PKC, a pseudosubstrate autoinhibitory sequence at the N-terminus of the molecule dissociates from the catalytic site and becomes sensitive to endopeptidase Arg-C (Orr, et al.). In the absence of PKC activators, exposure of the 80 kDa βPKC to endopeptidase Arg-C has no effect on the enzyme (see FIG. 7, lane 1). In the presence of the PKC activators PS, DG and calcium, however, exposure of βPKC to Arg-C results in a “nicking” of the PKC (i.e. limited proteolysis generating a 78 kDa fragment and several small fragments (see FIG. 7, lane 2)). Continued exposure to Arg-C results in the disappearance of βPKC (Orr, et al.). The present experiment tests whether peptides derived from the WD-40 region of RACK1 alter the sensitivity of βPKC to endopeptidase Arg-C.
The methods used to assay Arg-C sensitivity are a modification of methods described by Orr, et al. Rat brain PKC (˜5 nM) was incubated at room temperature in 500 μl of 20 mM Tris-HCl buffer (pH 7.5) alone or with Arg-C (5 units/ml) in the presence or absence of the indicated peptides (final concentration 10 μM or as indicated), PS, DG, and calcium (as indicated). 50 μl aliquots were removed into 20 μl of sample buffer during the reaction as indicated (samples in all the lanes were incubated for 30 minutes , except lanes 5, and 6, which were incubated for 5 and 15 minutes, respectively). The samples were boiled for 10 minutes at 80° C. and loaded onto 8% SDS-PAGE. βPKC was detected by Western blot analysis using anti-βPKC antibodies as described in Examples 6 and 8.
PKC was incubated for the indicated time alone (lane 1) or in the presence of Arg-C (lanes 2-9), with DG (0.8 μg/ml), PS (50 μg/ml) and CaCl2 (1 mM; lane 2), with PS (50 μg/ml) and CaCl2 (1 mM; lane 3), with PS (2.5 μg/ml) and CaCl2 (50 μM; lane 4); with PS (2.5 μg/ml), CaCl2 (50 μM) and with either peptide rVI (SEQ ID NO:7; 10 μM; lanes 5-7), control peptide (SEQ ID NO:9; lane 8) or with peptide I (SEQ ID NO:1; lane 9).

[3] = system: βPKC; experiment: βPKC translocation (soluble vs particulate fraction) in Xenopus oocytes; assay type: cell-based; conditions: peptide 50 μM microinjected; for insulin (hormone)-induced βPKC translocation: 60 min after insulin; for βPKC distribution / translocation in the absence of insulin treatment: untreated oocytes, 60 min
Experimental: Insulin causes the translocation of βPKC, but not other PKC isozymes, from a cytosolic form to a membrane-associated form, as evidenced by the relative levels of PKC in the soluble vs. the particulate fraction of oocyte homogenate. To assess the effects of RACK1 WD-40-derived peptides on insulin-induced PKC translocation, 50 nl of a 20 mM NaCl solution containing the indicated peptides were microinjected into Xenopus oocytes. The oocytes were then homogenized, and the relative amount of PKC in the soluble and particulate fractions was assayed. The protocol followed was a modification of a method described by Smith, et al. (1992).
Batches of 50 oocytes were microinjected with either peptide rVI (SEQ ID NO:7; 50 μM; lanes 3, 4), peptide I (SEQ ID NO:1; 50 μM, lanes 7, 8) or injection solution (NaCl 20 mM, lanes 1,2 and 5,6). Homogenates from each batch were prepared 60 minutes after microinjection (lanes 1-4) or 60 minutes after addition of insulin (lanes 5-8). The homogenates were centrifuged at 10,000 g for 3 minutes, the upper layer (containing fat and yolk) was removed, and the remainder was frozen at −70° C. Prior to use, the samples were thawed, 200 μl homogenization buffer was added and the samples were centrifuged at 100,000 g for 30 minutes at 4° C. The supernatants (soluble fraction) were removed and concentrated to 20 μl using “CENTRICON” concentrators (Amicon,Beverly, Mass.). The pellets (particulate fractions) were dissolved in 20 μl of homogenization buffer. The samples were resolved on an 8% SDS/PAGE gel and blotted onto nitrocellulose. The amount of PKC in each fraction was determined by Western blot using anti-βPKC antibodies (1:1000 dilution; Seikagaku Kogyo, Tokyo, Japan). Bound primary antibodies were detected by chemiluminescence as described in Example 3, part C.

[4] = system: Xenopus oocytes; experiment: PKC-mediated Xenopus oocyte maturation (germinal vesicle breakdown, GVBD) after peptide microinjection; assay type: cell-based; conditions: for plateau % GVBD (fraction of oocytes reaching maturation) following insulin exposure: peptide 50 μM, 50 nl microinjected, 20 h time course
Experimental: Exposure to insulin induces maturation in Xenopus oocytes via a PKC-dependent pathway (Smith, et al., 1992). The maturation response may be quantified by monitoring the appearance of a white spot in the animal hemisphere of the oocyte, indicating germinal vesicle breakdown (GVBD) and maturation. To assess the effects of RACK1 WD-40-derived peptides on insulin-induced PKC-mediated maturation, 50 nl of a 20 mM NaCl solution containing the indicated peptides [peptide I (SEQ ID NO:1; ●), peptide rVI (SEQ ID NO:7; ▪), or injection solution (□)] (peptides at 50 μM) were microinjected into Xenopus oocytes. […] One hour following the peptide injections, the oocytes were exposed to a solution containing insulin (8.25 μg/ml) for 2 minutes (t=0). 10-15 oocytes were used for each sample.
The data, representative of three independent experiments, are expressed as the percent of oocytes with GVBD following insulin exposure and are plotted as a function of time in FIG. 5.

[5] = peptide 50 μM microinjected, insulin 8.25 μg/ml

T1 sequence (P68403 whole entry): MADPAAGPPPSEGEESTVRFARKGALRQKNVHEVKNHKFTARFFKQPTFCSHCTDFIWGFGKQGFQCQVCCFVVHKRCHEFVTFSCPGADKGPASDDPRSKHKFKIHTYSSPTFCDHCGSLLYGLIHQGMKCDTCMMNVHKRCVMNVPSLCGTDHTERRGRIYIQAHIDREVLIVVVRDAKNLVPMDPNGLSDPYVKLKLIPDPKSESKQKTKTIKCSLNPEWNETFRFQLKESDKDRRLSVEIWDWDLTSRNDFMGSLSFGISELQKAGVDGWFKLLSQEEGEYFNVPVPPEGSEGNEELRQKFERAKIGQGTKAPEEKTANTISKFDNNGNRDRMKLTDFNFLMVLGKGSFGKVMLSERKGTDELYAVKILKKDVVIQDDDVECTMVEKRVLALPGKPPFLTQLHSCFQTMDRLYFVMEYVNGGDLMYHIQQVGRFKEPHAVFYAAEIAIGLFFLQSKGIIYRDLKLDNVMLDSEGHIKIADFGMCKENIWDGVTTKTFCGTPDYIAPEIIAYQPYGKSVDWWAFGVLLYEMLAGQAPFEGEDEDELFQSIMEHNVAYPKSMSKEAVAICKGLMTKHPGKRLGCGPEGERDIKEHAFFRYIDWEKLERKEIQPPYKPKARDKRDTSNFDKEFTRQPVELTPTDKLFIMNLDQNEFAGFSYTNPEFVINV

Substance | binding of activated PKC to immobilized peptide [1] | binding of unactivated PKC to immobilized peptide [1] | lowest peptide amount at which activated PKC bound [1] | nicking of βPKC by Arg-C (78 kDa fragment) [2] | insulin (hormone)-induced βPKC translocation [3] | βPKC distribution / translocation in the absence of insulin treatment [3] | plateau % GVBD (fraction of oocytes reaching maturation) following insulin exposure ([4]; insulin 8.25 μg/ml) | lowest peptide concentration sufficient to result in nicking activity [2] | delay to onset of maturation after exposure to insulin [4, 5] | time to reach GVBD plateau after insulin exposure [4, 5] | effect on insulin-induced oocyte maturation (in words) ([4]; peptide microinjected, insulin)
peptide I: 15-residue peptide homologous to a sequence in the sixth WD-40 repeat of RACK1; PKC antagonist (KGDYEKILVALCGGN) | bound | did not bind | 5 µmol | did not result in appreciable nicking activity; also recorded: did not occur | inhibited hormone-induced translocation; also recorded: inhibited insulin-induced βPKC translocation | did not affect βPKC distribution | 45-50% |  |  |  | 
peptide rVI: eight amino acid peptide identical to a segment of RACK1 WD-40 repeat VI (DIINALCF) | bound | did bind | 5 µmol | time-dependent appearance of the 78 kDa nicked PKC fragment | augments hormone-induced translocation | induced βPKC translocation | ~100% and 95-100% | 10 nM | 3 to 4 h | ≤ 5 h | potentiates the effects of insulin on oocyte maturation

Source: patent publication US6342368B1, “WD-40-derived peptides and uses thereof” (The Board of Trustees of the Leland Stanford Junior …, priority 1994, dated 2002)
